# Experimental data from PMC8850444, “The lipid components of high-density lipoproteins (HDL) are essential for the binding and transportation of antimicrobial peptides in human serum” (Scientific Reports, 2022).
# B1: apolipoprotein A-II (Apo-AII) of human serum (natural protein)
# chain: not shown
# notes: Dimeric under non-reducing conditions; In serum it stands in HDL particles together with lipids; also called 17 kDa protein; source: endogenous, crude human serum
# Biological target: the molecule itself
# Test: non-reducing SDS-PAGE; serum proteins pulled down by immobilised LL37, 15% non-reducing SDS-PAGE, Coomassie; monomer to dimer
protein,measurement,value
B1,stoichiometry N,2
